Experiments:
Assay in all cases: SPR, captured hENG-hFc, soluble ligand
[1] = biological target: T1, hENG(458-581)-hFc (human, UniProt P17813 458-581)
T1 construct: Expressed in COS cells, not purified; not shown: human IgG1 Fc domain
T1 sequence: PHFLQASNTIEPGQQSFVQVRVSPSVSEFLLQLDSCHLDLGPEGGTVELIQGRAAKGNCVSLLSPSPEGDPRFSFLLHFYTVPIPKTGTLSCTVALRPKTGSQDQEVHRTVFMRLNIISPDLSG

[2] = biological target: T2, hENG(360-586)-hFc (human, UniProt P17813 360-586)
T2 construct: not shown: human IgG1 Fc domain
T2 sequence: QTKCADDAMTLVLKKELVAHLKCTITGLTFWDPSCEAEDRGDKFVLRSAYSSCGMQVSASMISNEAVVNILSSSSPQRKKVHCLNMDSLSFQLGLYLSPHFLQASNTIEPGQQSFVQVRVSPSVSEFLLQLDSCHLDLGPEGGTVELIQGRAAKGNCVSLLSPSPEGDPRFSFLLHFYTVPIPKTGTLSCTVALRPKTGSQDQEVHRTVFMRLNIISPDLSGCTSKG

[3] = biological target: T3, hENG(26-257)-hFc (human, UniProt P17813 26-257)
T3 construct: not shown: human IgG1 Fc domain
T3 sequence: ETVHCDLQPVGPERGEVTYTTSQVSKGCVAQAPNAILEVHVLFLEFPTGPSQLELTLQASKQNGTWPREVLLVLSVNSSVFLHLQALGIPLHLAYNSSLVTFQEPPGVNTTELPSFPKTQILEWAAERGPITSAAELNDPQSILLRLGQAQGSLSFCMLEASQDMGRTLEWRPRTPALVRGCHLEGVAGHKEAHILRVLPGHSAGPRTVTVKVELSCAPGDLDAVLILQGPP

[4] = biological target: T4, hENG(133-346)-hFc (human, UniProt P17813 133-346)
T4 construct: not shown: human IgG1 Fc domain
T4 sequence: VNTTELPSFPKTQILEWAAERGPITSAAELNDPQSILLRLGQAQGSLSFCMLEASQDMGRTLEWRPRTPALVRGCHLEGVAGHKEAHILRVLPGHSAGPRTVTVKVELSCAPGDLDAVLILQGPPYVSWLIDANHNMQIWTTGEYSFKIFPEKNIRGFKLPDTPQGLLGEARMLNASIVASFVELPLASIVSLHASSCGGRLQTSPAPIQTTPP

[5] = biological target: T5, hENG(166-346)-hFc (human, UniProt P17813 166-346)
T5 construct: not shown: human IgG1 Fc domain
T5 sequence: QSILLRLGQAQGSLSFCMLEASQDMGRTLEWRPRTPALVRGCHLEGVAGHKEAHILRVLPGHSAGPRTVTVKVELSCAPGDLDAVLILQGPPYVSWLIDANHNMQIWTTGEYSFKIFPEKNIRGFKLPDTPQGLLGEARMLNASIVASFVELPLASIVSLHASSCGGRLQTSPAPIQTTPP

[6] = biological target: T6, hENG(458-586)-hFc (human, UniProt P17813 458-586)
T6 construct: Expressed in COS cells, not purified; not shown: human IgG1 Fc domain
T6 sequence: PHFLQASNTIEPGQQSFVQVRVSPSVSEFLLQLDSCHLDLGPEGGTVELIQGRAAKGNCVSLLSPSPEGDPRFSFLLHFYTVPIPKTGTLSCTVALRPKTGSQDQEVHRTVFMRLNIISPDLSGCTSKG

[7] = biological target: T7, hENG(61-346)-hFc (human, UniProt P17813 61-346)
T7 construct: not shown: human IgG1 Fc domain
T7 sequence: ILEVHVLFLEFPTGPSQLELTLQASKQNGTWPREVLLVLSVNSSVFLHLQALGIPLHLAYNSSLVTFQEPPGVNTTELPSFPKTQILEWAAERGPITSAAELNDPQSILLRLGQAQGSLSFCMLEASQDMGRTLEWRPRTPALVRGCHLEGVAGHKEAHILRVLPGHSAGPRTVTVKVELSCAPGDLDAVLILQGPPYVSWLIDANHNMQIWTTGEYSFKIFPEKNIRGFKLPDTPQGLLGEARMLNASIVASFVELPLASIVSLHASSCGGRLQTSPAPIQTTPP

[8] = biological target: T8, hENG(26-332)-hFc (human, UniProt P17813 26-332)
T8 construct: not shown: human IgG1 Fc domain
T8 sequence: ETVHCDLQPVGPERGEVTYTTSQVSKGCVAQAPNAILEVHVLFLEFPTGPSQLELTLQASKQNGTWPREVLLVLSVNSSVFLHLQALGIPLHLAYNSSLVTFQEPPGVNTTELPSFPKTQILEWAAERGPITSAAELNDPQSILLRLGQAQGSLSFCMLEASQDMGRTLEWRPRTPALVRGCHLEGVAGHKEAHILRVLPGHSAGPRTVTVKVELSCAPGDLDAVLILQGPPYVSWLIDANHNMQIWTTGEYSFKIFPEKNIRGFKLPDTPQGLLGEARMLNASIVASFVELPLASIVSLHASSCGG

[9] = biological target: T9, hENG(438-586)-hFc (human, UniProt P17813 438-586)
T9 construct: not shown: human IgG1 Fc domain
T9 sequence: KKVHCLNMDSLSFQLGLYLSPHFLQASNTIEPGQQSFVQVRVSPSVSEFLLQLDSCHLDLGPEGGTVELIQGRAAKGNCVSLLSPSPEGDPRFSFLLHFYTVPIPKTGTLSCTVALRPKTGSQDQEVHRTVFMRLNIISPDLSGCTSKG

[10] = biological target: T10, hENG(129-346)-hFc (human, UniProt P17813 129-346)
T10 construct: not shown: human IgG1 Fc domain
T10 sequence: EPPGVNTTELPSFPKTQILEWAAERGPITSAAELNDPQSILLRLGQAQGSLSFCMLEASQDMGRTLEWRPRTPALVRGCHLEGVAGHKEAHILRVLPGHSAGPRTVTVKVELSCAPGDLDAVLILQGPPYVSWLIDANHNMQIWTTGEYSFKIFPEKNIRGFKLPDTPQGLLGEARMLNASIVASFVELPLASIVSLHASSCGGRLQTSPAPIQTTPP

Measured: binding result

B1: human BMP-9 (ligand, UniProt Q9UK05 320-429, looked up)
chain: SAGAGSHCQKTSLRVNFEDIGWDSWIIAPKEYEAYECKGGCFFPLADDVTPTKHAIVQTLVHLKFPTKVGKACCVPTKLSPISVLYKDDMGVPTLKYHYEGMSVAECGCR
notes: also called hBMP-9
no binding (tested: 100 nM): all assays above

B2: human BMP-10 (ligand, UniProt O95393 317-424, looked up)
chain: NAKGNYCKRTPLYIDFKEIGWDSWIIAPPGYEAYECRGVCNYPLAEHLTPTKHAIIQALVHLKNSQKASKACCVPTKLEPISILYLDKGVVTYKFKYEGMAVSECGCR
notes: also called hBMP-10
no binding (tested: 100 nM): all assays above

— patent US20200164029A1 (ACCELERON PHARMA, published 2020)
